# Target: SpyCatcher003-A49C labelled with Alexa 555 maleimide
# Experiment: FRET or BRET; inline mixing cell, SpyTag003-sfGFP (donor) and SpyCatcher003-AF555 (acceptor) each at 10 uM, equimolar, delays 0.02-10 s, emission at 515 nm, double exponential fit; observed rates at one concentration
substance,measurement,value
SpyTag003-sfGFP,"fast rate of the double exponential FRET decay (observed, 10 uM each)",143 s⁻¹
same,percent reduction of the donor fluorescence by FRET (20 ms to 10 s after mixing),> 50%
same,"slow rate of the double exponential FRET decay (observed, 10 uM each)",7 s⁻¹
